In the domain aggregation screens of Martell et al. (2025):

Experiment: soluble fraction after stress (log2 fold change); higher = more stays soluble; pooled small domains, quantitative proteomics
Conditions: stress: pH 4
How it was run: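 How much of each domain stays soluble after acid stress, expressed as a fold change, is used to gauge aggregation propensity. Pooled custom libraries of small domains underwent pH 4 stress before high-throughput quantitative proteomics. A higher log2 value means more of the domain stayed soluble.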

HMDLFLVYQFIRRLATPFTEWKAHELGIIDDKGVQLKKRRDFTTREEKDAYGIFDIMITKLKRLIEKV
soluble fraction (log2): -1.04

HMQTTVHLSPEEMVIMNALKQESPIDLPILRAQVEMSNKLWDTSMKNLSKLGQLKVEKIGEQVSVSLI
soluble fraction (log2): ≥ 0.43

HMLKDQSIAQLEKNLDDLKGLMRKMFGSSDVPKITKMISDIESSLANFNQSKANKLIVQTTNYISSKL
soluble fraction (log2): -0.0978

HMPVFSAEQVAKAEADVQKVANKVQEAGADVEKLTTIHNWLLAREKYMPPDLFSTANQIIATAFQKAG
soluble fraction (log2): 0.279

HMTVKRNLVQEILRLKFRHPENFMPNRAFYQEVGINQMRWWDIFYGRKNINQEEYIALSKYF
soluble fraction (log2): -0.352

HMGSNATIKYAIKGDESLVQVAQKFNVTVSELRSWNNISAFENAKTGQELVINVPASKYETYFALANT
soluble fraction (log2): -0.0194

HMQGAARGMLFAQAQRWMTKFRIDPQQADRITQAALDPAQTDAILREVRRGYGPSAERALRGIIRRARRA
soluble fraction (log2): 0.259

HMELEDTYTKNLDASLARLDEYQASKGLTDEQVDEVINSLIADAENIIMGVFTPELIDSKLKAMNYDQDV
soluble fraction (log2): -0.17

HMPETYVVFSKDGYANLRRGTTINSEILDVLDNGEYVTKLDEVGEWYRVEYADFDGGYIHKSQLKNI
soluble fraction (log2): -1.58

HMGISEKVINIIETYTMIARKKYPSVKSLAEHFNVSERTVHRYLEIIKMIDVVDYDREKKGYFFPYGDR
soluble fraction (log2): -0.462

HMKSYQKITPATEGNYLTTYREGDDIKTYEGVKAMYTPADFDASSVREITPEEHQSYQKAKEQALQEETEQ
soluble fraction (log2): 0.0912

HMGTWKKIGTMTATVNDLYVRETPNGYIMGFINKGTVVEVDGKTTGKWTHAKVEGIGVGWIWTGYLDK
soluble fraction (log2): 0.161

HMTFFDDLLYQAKAAVDNDPSIKPSLHNRAIIEILYQQGVFNMKNAVEHVAELLEISKNTVYLHLRSVKG
soluble fraction (log2): -0.976

HMNIQKYFAGREQFIELLEAVGIRTLEQFASADPSTVLPELHQAKRMLKLQTEIPSAPVFREWVNQALS
soluble fraction (log2): -0.901

HMDVRLAKVYMLPANPYLRFIEFDDGTHGKFRAKPGKFGLGSVVKVKREDGDMYTLEGNYDGKDRL
soluble fraction (log2): 0.152

HMSDPVDDLLLRISQQAGVARGQLVAELNMLVQDRFGGNLRHEAAAVLMAKRYGIEFRDLLPALREHLVKN
soluble fraction (log2): -0.469

HMKDITAVISKKKGRDYYYIIVSYHLSNGKRVQKWIKTEFSVNGNNKRKLEQKRIEILQEWQNKLV
soluble fraction (log2): -0.0977

HMELSTQERIQILLEILNQREIISFSQTLRKKEGKKGVVVTFLASLELAKDGYVTLVQNKSDQIYLRSN
soluble fraction (log2): -0.428

HMARRTPPPTVSELNALLRVAAPHIQRVILLGIYTGARIGPSELFSLKWDDVDLTRGVIGIRL
soluble fraction (log2): -0.39

HMRFGNHHVYRTLMVLSDQKRKGRKQIADAVGIGEGSMRTIIEYLRGLDMIDIRQTGVKITRHGNAFL
soluble fraction (log2): 0.138

HMFFMTMGEKIQLLRKKQNWSQETLAEKLSVSRQAVSLWERDESQPELDKLLKLAKIFSVTTDYLIDDSVT
soluble fraction (log2): -0.0472

HMNSSTYIVTFKVDGEEDIVETYQWGDRIIVPEVEAKDDYVFIGWDAQIPEFMPERNLEFTAI
soluble fraction (log2): -1.67

HMRSFGTLRRLPSGRYQASYAGPDLRRHAAPTTFETKLDAEGWLRDEHRMIERDEWTAPAARSQLK
soluble fraction (log2): 0.0606

HMSQTDQALRHLIREAWATLPQRQQQAVELAYYEGLPDTEIAARLNQPVEEVKTSIVLGMAHLREALHSY
soluble fraction (log2): -0.198

HMEGTVQQDKFDAYKAKFEDAISNDLNTSMAITIIYDLLKDDMNDKTKLALINDFDKVLSLNLTTA
soluble fraction (log2): -1.17

HMRLDHIFSVVERLKGVSLGAGDRLEVQKYEDLLTVYKSKNALSSEEAQTLNDILASLLKMMAKYD
soluble fraction (log2): -0.54

HMEPTIGTATVTSGSRLNMRSAKSTSASVVTRIPSGATVGVISYASDWSKVTYNGYTGYVSSPYISMNG
soluble fraction (log2): -0.108

HMFNTWLGEIRSNTGANVRSGPDASAAIVDARPNETVVRVIGQSGNWLQIGDKQFVAQSLVAP
soluble fraction (log2): -0.0317

HMSDESRAEIVSSAKRLFQQYGYKKTTVSDIAKAMGKVKSAIYYYFPDKESLLRAVIDEEVG
soluble fraction (log2): 0.132

HMSYTYPVARLNHIKGKWYVLVSVPAHLRHLFPNQRDLRRSTGTDDESLAKRKQHALAQEIYDLFD
soluble fraction (log2): 0.00145

HMAQKQLYIAGTDYTKNSTSQLVLAYFPAKPSSIKIFFDGIYQNKDKWSLFGKTIIFGLPISSNAVEVHYE
soluble fraction (log2): -0.201

HMNPSAFSEYSFELLQSALLKKKIDENLSNQTIARDAGVSEAFVQKVLTNNVKRPSVKNRVRMISYLGLD
soluble fraction (log2): 0.00228

HMANSDEEVLNKISTKAPTFNELINKIKEFDDTKEINDIWLDVYRYYITDEEYKEIAKKVITGLTYTNQ
soluble fraction (log2): -0.544

HMAHYPGKVNNELVEFIRSEQRKTPHMTLTGLNRKLQRTYDLTLSESTVRKLVEAETILPLAREPD
soluble fraction (log2): 0.217

HMASENISYSQFINQVKNSMVESVSIEADGKTISGKYKSGSSFVTYGLNDPKLVDDLLSNNVEIL
soluble fraction (log2): 0.0122

HMQSEISRIGRILKERRLQLGYTQEYAAEKAGISYSYYTKIERGQQLPSLEVAMVLSKTFSLSMDRWL
soluble fraction (log2): -0.599

HMSMPDERMLTSWMMARVKAAGKTMTRDAWNEFFERSNDSMDHMDMEMEKLLSYVYDKDGITLEDVEA
soluble fraction (log2): -0.381

HMSMQIILLDKVVNLGGLGDVVKVKDGYARNYLIPQGKAKRANTANLAEFEARRVELERLAAEQLAQAQA
soluble fraction (log2): -0.478

HMSKIVPVAYSQFLKDVKNGNVSQVEIRGNNIKGINNNGSSFSTYAPNDLSLIDKLEKSNVEIIVMPLE
soluble fraction (log2): -0.232

HMLTDMSKIRKVLKLYGKGNSKLFISTYLSLSRNTVKKYISLFEVSGKTIEEILAKSDSELELLFSG
soluble fraction (log2): -0.0775

HMDPTIAAIRKKLKNWTIVEVHMTREELEQAVIDGKVDVFLSSAGFYRRLVRFGARDLATAMSPAYPD
soluble fraction (log2): -0.151

HMAQDIEQLEKAVSFYTRMDPAAAALSITNLDQKTAVNILMRMKDKQASAVLESMTAERSSELIDSIARK
soluble fraction (log2): -0.863

HMVNTVEVQGNTIYSAEEIRSASGIQKGDNLFTLNKEAAAGSIKASLPYVETVSIIRFLPDKIVIEVKE
soluble fraction (log2): -0.977

HMDHAVINSEEVTIKDLSEKIGVSAAEIIKALFTEGIIKTINDKIEYEYAQYVAGMFGVELTLKL
soluble fraction (log2): 0.188

HMVELNDNEKIVYDILKETEKIHIDELTAKVQLTQSILSGALVQMEMKGMIVSLPGKMYKLL
soluble fraction (log2): -1.53

HMRAMWENLFFQYKEGFLPEEYYKQGIATGIRLAGPKFVEMNIPMQKEFEDEVHRLLAEHEKSVK
soluble fraction (log2): -0.795

HMANPMFAEIKKVQKQLNEMGYQAGPADGLWGNKTENAVKLLLSDNNLKWDGTFDQNEIKIIEEIFLSND
soluble fraction (log2): -0.257

HMKGIVFTEFLDLVEERFGLEMVDAIISQSKLESKGVYTSIGTYSFSELLQLLQNLKIQTGISIDNLLLI
soluble fraction (log2): -1.51

HMHPDALTEREREVLSLLADGLSNREIAARLVLALGTVKWYISVIYSKLGVTRRTQAIARARELHLV
soluble fraction (log2): -0.41

HMGVGVKSTEVDYQRTSSGSDIPTDDAAWTKTIPAVKVNTFLWTRTKINYTDGTSAIFYSVGY
soluble fraction (log2): 0.419

HMKYNETEFKNLVAKLYNGEIEIVGKFTGLSYPILVKDKYGIMLSQKANLILNYRPTINIALNKTEYAMN
soluble fraction (log2): -0.4

HMDYADISYKIFMNHIKNGQVERVELSGDPRIMGKLKDGTYFVTDNPRTENFKEFLLLNNVQVIETN
soluble fraction (log2): -0.772

HMSVFGDNVARLRAEHGMSQRALAERLEITNGTVAAWESRDTLPDYDRIRQIAEIFDVPIPQLFAKYIP
soluble fraction (log2): -1.2

HMTLGSVRTVRQVLDDGRLLVADSGGNVTLVRRAGTLAKENVNTGDRVSVDSSVRFALTLIPV
soluble fraction (log2): -0.00374

HMAQMDDPEMVLHIYNKMIQQRLFDTAVGYSYLKDLQEYLQSIPFIRKEDIFPIPVQHPQVEESLRKAK
soluble fraction (log2): 0.0635

HMDTHDVQVPQEGQGLRLDLFLTDHIEGSRSFIQTIIKDGHVILNGKKAKANSRLNEGDYVVWSIPKPE
soluble fraction (log2): -0.37

HMNGGPHYLRDVRTSLGLSQADLAKAVGTSANMIHYLESGERALTLKWIRRISEALNVSPMRLIN
soluble fraction (log2): -0.0552

HMRRMAYLVGQRGLAMGDFISGTGQVRIGDTVWRAEAVEGELVRTGDTVVVEGAKMTTAIVRRVM
soluble fraction (log2): -0.302

HMDIVENSMPNVVGLELNRAKELMTQLGFTNVRYEPTESSRPENEVVYQSVDKDETLDVSSEIIIQYSSGV
soluble fraction (log2): -0.535

HMVRRSERLHALTESLRRSGNRGRTAEQLATEFEVSVRTIKRDLVALEASGLPLWSRPGPGGGYGLLS
soluble fraction (log2): -0.0236

HMVAGHLQEKKGYFYMVLTYRDHEGKRKSKWLPTGLTIKGNKKRAQDLLQDARKNFVPDIPT
soluble fraction (log2): ≥ 0.43

HMFEERKKDWNLTGLLDDVIRRYIHQLTNDELNEINLEKSSGMPDEEIKNGIKLPLAVMQQRRETWGS
soluble fraction (log2): -0.308

HMSEPTVVAINETLTSERLDRYLTTQLPHISRGGIQRLLRKGNILVDGKPAKPTQHPVAGQTVEITWPIPK
soluble fraction (log2): -0.02

HMDIINLADNIARLRRRRQITQEELADYLGVTKAAVSKWENRQTMPDILLLPRLAGLFEVTIDELVGY
soluble fraction (log2): -1.72

HMSEPHPPFQVVAQFPYKSEYEDDLNFEKDQIITVTSIEDDEWYYGDFKNKGGELVEGIFPKSFVTVK
soluble fraction (log2): -0.867

HMQAGNAVEQYPTIGRLEEVTLGRSQPGAPIGERLSTLETVVFKRNFNDDSLFDRTERLKKTILGG
soluble fraction (log2): -0.0794

HMQDNDLKNQIENVLRTYPDNVFTVEKIADVLRSHGSAAFKLIVQELASLERDKVAVVTEDGKFQLNPD
soluble fraction (log2): 0.339

HMSEEELETSGLVKRSAKGNLYDIFRHRVMVPIIDVRGAIIAFGGRVLDDSKPKYINSPETMVY
soluble fraction (log2): 0.0468

HMKNLTERQQRIIALISENPQTTRAEIAGAIGVATKTIERELTTLSNIVYYVGPKKGGHWEIIK
soluble fraction (log2): 0.333

HMQKIEKVDYGTFLKMIENGEIDQVNLTEKKISFTTDKDAETVYETGRVEDPNIVDRLYQADVEFTQEI
soluble fraction (log2): -0.884

HMHYALTVDFPAALEARIDPAHRAALRGVLAHDPRPSYQSDPERLYGVAFAGKNVKFTVEDGVLTVRKIEE
soluble fraction (log2): -0.267

HMDQSIDADIINLNFSKNIIKIEENVYYKNNNAKVNADKIEINIETKKLKISMNEQEDEVEIFAK
soluble fraction (log2): -0.399

HMEGIWAVFYDGKPINLKSSSLVANYPGPKYKKVSFSNPGHAENLAKKLNAQHNTDKFGVYLLKSGDKFS
soluble fraction (log2): 0.219

HMRNKTVKEVLDYIEKNSEFIFFYYSKAIDTKRIVSLSVKDQPITVILDQLFKNTDVLYEIKDRQISLKRE
soluble fraction (log2): -0.508

HMAPKVTLNETETAIFEKMQQEKQLLLSELRTHFDISNKLWDTSIKTLTKNQLLTVSKEADLLWIKL
soluble fraction (log2): -0.935
